From a protein production outcome set (Wang et al. 2014)

Assay: label from the status in PepcDB records

| Sequence | protein production |
| --- | --- |
| MTPQDAQAFEQLLANCADEPIRSPGAIQPHGVLLTLSEPELRIQQISANVEALLGQPAAQVLGQPLEQLLGDTDGQRIREVLQLPRLSDAPPLHLAVNGARFEGLLHRHQGVLMLELEIQLEHLQPQHLKEQTENLGRLLRRLQTAKTLNELYAISVSEIQAMTGYDRVLIYRFEEEGHGQVIAEATRPTMEVFNGLFFPASDIPQQARELYRSNWLRIIPNADYQPVPLLPALRPDTQQALDLSFATLRSVSPIHCQYMKNMGVLSSMSISLLKGDQLWGLISCGNRQPLLVPHELRIACQTIGQVLSLQISAMEALDISRQREEKVTALASLDQAMRDTPDSVFDGLAQVPQLLLDLTQAGGVAIIEDKQLHCFGNCPPQDEIRALHRWLQGTGQAVFASHHLANVYPPAASYQQVASGVLAMTLPKPVDNGVLWFRPEVKENINWSGNPQKPLDLENSDAGLRLRPRTSFEIWKVEMAGISTKWSHGDRFAANDLRRSALEHDLARQVLREQQAVRARDELVAVVSHDLRNPMTVISMLCGMMQKAFSSDGPHTSRRISSAIDTMQQAASRMNNLLEDLLDTSKIEAGRYSIAPQPLDVSQMFEEAYSLLAPLALDKAIDISFHAEPDLRINADPERLFQVLSNLVGNAIKFTPKQGKVGVVAMSDGEQIVFSVRDSGEGIPTDQLPFIFDRYWTMKEGNPNGTGLGLYITQGIIHAHGGKIEAHSEVGKGSEFRFSVPRASL | failed |
| MHPPIVMSTLPPSVAPPIGTAPQRHSLVSLRRLSWLRWALLAGQALLLVSCESLAGIALPYKPLLFLFAVQTVFNVFTVARLHWHTRHGTAPSDAELMVQMMVDLTALSAILFYTGGATNPFVSFYLPGLAIASAILPWRLVVTLAAYALACYSMLLLEYIPLDLHNPDNAVNYHLAGMWLNFVASAVMIAFFVARLSNALRQRDAQLNEARELLLREARVEALNDQAAAVAHEIGTPLATLAVIAGELRADAENTNRSDTPVADYQADLRTMEQQLELCRSILARLRADHETLAPQRIDAWLAPFVERWQLRHPQASLQAGAAPDAAAQAVDTARISQILTIALDNAARSQQAAGHDHRQGPPLRLDIAREADALVYRVTDHGHGLPPGLRARLGESPVASAHGGQGIGLYLAQSAARQLGGQISWHDNPAGGTVLELRLPLTAASERAIAAQPDFQP | failed |
| MAAERKTKLSKNLLRMKFMQRGLDSETKKQLEEEEKKIISEEHWYLDLPELKEKESFIIEEQSFLLCEDLLYGRMSFRGFNPEVEKLMLQMNAKHKAEEVEDETVELDVSDEEMARRYETLVGTIGKKFARKRDHANYEEDENGDITPIKAKKMFLKPQD | not failed |
| MDKKSKPDWAGESLLSNFVNLLIQTKPIYGVMKQQARQVLIKTAEKNGIPWRKNYEALQVSPAKKLLAAVTNPHVIYPDYYKVPFHAYTEGNLCWDAAFETESATYAMALRVWPQENLTWEAAHARLRGTFHDALETYAPQQVRDILDIGCSVGVSTLALHRYYQRRERYPVRTVGLDLSPYMLAVAKTRDVNSEISEWLHARAENTGLPDKSFDLVTIQFVTHELPGYVSQEIFAEAKRLLRPGGYIALVDNNPRSPVIQNLPPVLFTLMKSTEPWSDDYYTFDIEAALQAVGFAPPITVPSDPRHRTIIARKPD | failed |
| TVHKQDGKVLEIELSSLKEALSFVSLIDGYYRLTADAHHYLCKEVAPPAVLENIHSNCHGPISMDFAISKLKKAGNQTGLYVLRCSPKDFNKYFLTFAVERENVIEYKHCLITKNENGEYNLSGTKRNFSNLKDLLNCYQMETVRSDSIIFQFTKCCPPKPKDKSNLLVFRTNGISDVQISPTLQRHNNVNQMVFHKIRNEDLIFNESLGQGTFTKIFKGVRREVGDYGQLHKTEVLLKVLDKAHRNYSESFFEAASMMSQLSHKHLVLNYGVCVCGEENILVQEFVKFGSLDTYLKKNKNSINILWKLGVAKQLAWAMHFLEEKSLIHGNVCAKNILLIREEDRRTGNPPFIKLSDPGISITVLPKDILQERIPWVPPECIENPKNLNLATDKWSFGTTLWEICSGGDKPLSALDSQRKLQFYEDKHQLPAPKWTELANLINNCMDYEPDFRPAFRAVIRDLNSLFTPDYELLTENDMLPNMRIGALGFSGAFEDRDPTQFEERHLKFLQQLGKGNFGSVEMCRYDPLQDNTGEVVAVKKLQHSTEEHLRDFEREIEILKSLQHDNIVKYKGVCYSAGRRNLRLIMEYLPYGSLRDYLQKHKERIDHKKLLQYTSQICKGMEYLGTKRYIHRDLATRNILVENENRVKIGDFGLTKVLPQDKEYYKVKEPGESPIFWYAPESLTESKFSVASDVWSFGVVLYELFTYIEKSKSPPVEFMRMIGNDKQGQMIVFHLIELLKSNGRLPRPEGCPDEIYVIMTECWNNNVSQRPSFRDLSLRVDQIRDSIAA | failed |
| MVRNSMKAEYDIDHLPHQTFYGDYSKTLVPMNKNSQIITKIKPKIRIIHIFAPEIINTDVKNFRTLVQSLTGKPEITKTGSKKKITNTNFPAPPGLPQDSGQEHTAELDNRIIGSHVVKEEWGSSSNTNTYFDFDGLIDLDEDDNIFSSRWFDLQQQ | failed |
| RETYPDAVKICNICHSLLIQGQSCETCGIRMHLPCVAKYFQSNAEPRCPHCNDYWPHEIPK | not failed |
| MRQSCLMTEQLQDIKTLIEQGDTERAIHALTNFIRNDAHVNDEPYYLLGNAYRKMGDWQQALNNYLEAIERNPESPAVSARNMIMNILNFYNKDMYNQ | failed |
| EVLLETLNATELNETTASLAVHQTMKENGQLFVSNSMAIRYLDRFMDSRPYRMFGNRGINGIDGIVSTALGMSAIAPTQQNVLLIGDLALYHDMNGLFLAKRYQLPLTIVLLNNNGGGIFSFLSQRTLREDDFEPLFGTPLDLDFSLVAELYGASYQEVKTIAELKQILQAAAEEPQFQVIEVKGNRQEN | not failed |
| MSSPLVLPSDGHYWLKNAHIPPNLVKTKVNFPENFQFPRPWEDLGLYHLEIADGKIKNIVAVGQGEESDLVTDDGVPRVDLSKRMILPCFVDMHTHLDKGHIWGRSPNVDGTFSGAIASTERDAELHHSPEDIYRRMEFALQCSYAHGTAAVRTHIEMAGQKSQIAWQTFQQLRQAWADRLTLQGVAMVTTDYYLGSAGEKLADQMAHGGGILGGVAYAGPQVEAQLTRLMTLAQARNLAIDLHVDENGDRRSRVLHQVAAIALKVGFTGQIVCGHCCSLDVQSPQQVQQTLALVKQANIAIISLPLCNLYLQGRHQPQKPAWRGITKVHAIHAEGIPLVFASDNCRDPFFPFGDHDGLEILNQSVRIGQLDPPYGHWCATVNQTPAQLMGLADYGRLAVNGPADLVIFPARYFSEIFSRPQGDRLVIRKGKPTHKKTPHYQELDDLMGA | failed |
| EPEQVIRKYTEELKVAPEEDCIICMEKLAVASGYSDMTDSKALGPMVVGRLTKCSHAFHLLCLLAMYCNGNKDGSLQCPSCKTIYGEKTGTQPWGKMEVFR | not failed |
| MDKPALPIYLVVHFSYGDVTFPLQGRSYWTVGRSQDNDLVIRDNCISRNHAILQATEEDTFLLIDLGSRNGTFVNGRRVSVPIAIQDQDKITFGKTEAQFYSDQNGTPSGLLRNPAEWDTQTNVLHERRLITVLVADMRNFTGMAQQVEEELLSMLIGNWFRQAGHILREAGSWVDKYIGDAVMAIWFHGYNEATPAEIIQILHAVNRLQAMTAKLNQKYELPFPLRIGTGINTGYAMVGNTGSGDHPDYTAIGDTVNAAFRLESATKQAHFDLAMSEKTFSYLQDLPQWSATVQQHTIELKGYTNPITIYGLPFATLGTLLDHTSLEDTTPASEGP | failed |
| MELLIRTEQLLLQNEKNWELYLSNREEEKPFDFYKDMKPFVDEAKRCADDFLELAIPWVNTERPPYLGELQLRQACDNVQMTAVSAFNGRSFYKHFLDHYQSTKYTLTRVRDFLKRKEESM | not failed |
| MENRRIVIITGANSGIGKEAAQRFANEGDHVIMACRNIAFSRKVQHDIIAASGNDHVDLLELDVSSFASIRTFCTTFNSQYKRLDILIHNAAYFNHGEPYRLSPDGIELTFATNVFGPYLLTSLLRDRLKQSEDPRILHAGSNIIKHFFDPKQTFDLDLLQGNHGTKSYSVYKMYCQSKMALMLLTFQMAEVFADDGIKVNALQINGAKMSKRTIQKVKPWWRPIAWGQNLFFPPPSYMADKYFTICTSDKYKQTTGKLFNDKLEIMEPSPTHYPGFFKQMKLLLGSNVYPAYENTNIREKLWALCKELVGELEHHHHHH | not failed |
